B1: CAS72052VH5-AS71529VH5-BBz: bivalent tandem anti-GPC2 CAR (4-1BB, CD3ζ), SEQ ID NO: 240; tested as CAR T cells (protein)
chain: MALPVTALLLPLALLLHAARPQVQLVESGGGVVQPGGSLRLSCAVSGFRYASYCMGWFRQAPGKGLEGVAAIHSDGIIRYAESVKGRFTISKDNSKNTLYLQMNSLRAEDTAVYYCAAGAYCGADAILTLYDYAFWGQGTLVTVSSGGGGSGGGGSGGGGSEVQLVESGGGLVQPGGSLRLSCAVSEYRYSSRYCMGWFRQAPGKGLEGVSAIDSNGSADYVDSVKGRFTISKDNSKNTLYLQMNSLRAEDTAVYYCAADHLAYDCYSGATSVFRYWGQGTLVTVSSTTTPAPRPPTPAPTIASQPLSLRPEACRPAAGGAVHTRGLDFACDIYIWAPLAGTCGVLLLSLVITLYCKRGRKKLLYIFKQPFMRPVQTTQEEDGCSCRFPEEEEGGCELRVKFSRSADAPAYKQGQNQLYNELNLGRREEYDVLDKRRGRDPEMGGKPRRKNPQEGLYNELQKDKMAEAYSEIGMKGERRRGKGHDGLYQGLSTATKDTYDALHMQALPPR
modifications: expressed in CAR T cells; CAS72052VH5-AS71529VH5-BBz
B2: CAS72669VH6-BBz: humanized VHH anti-GPC2 CAR (4-1BB, CD3ζ), SEQ ID NO: 226; tested as CAR T cells (protein)
chain: MALPVTALLLPLALLLHAARPQVQLVESGGGVVQPGGSLRLSCAASRFTYSSYCMGWIRQAPGKGREGVAIFYTGGGRTYYADSVKGRFTISQDNSKNTLYLQMNSLRAEDTAVYYCVAGFYCSGGYWEGDFGYWGQGTLVTVSSTTTPAPRPPTPAPTIASQPLSLRPEACRPAAGGAVHTRGLDFACDIYIWAPLAGTCGVLLLSLVITLYCKRGRKKLLYIFKQPFMRPVQTTQEEDGCSCRFPEEEEGGCELRVKFSRSADAPAYKQGQNQLYNELNLGRREEYDVLDKRRGRDPEMGGKPRRKNPQEGLYNELQKDKMAEAYSEIGMKGERRRGKGHDGLYQGLSTATKDTYDALHMQALPPR
modifications: expressed in CAR T cells; CAS72669VH6-BBz
B3: CAS71529VH6-AS70950VH6-BBz: bivalent tandem anti-GPC2 CAR (4-1BB, CD3ζ), SEQ ID NO: 242; tested as CAR T cells (protein)
chain: MALPVTALLLPLALLLHAARPEVQLVESGGGLVQPGGSLRLSCAVSEYRYSSRYCMGWFRQAPGKGREGVAAIDSNGSADYVDSVKGRFTISKDNSKNTLYLQMNSLRAEDTAMYYCAADHLAYDCYSGATSVFRYWGQGTLVTVSSGGGGSGGGGSGGGGSEVQLVESGGGLVQPGGSLRLSCAISEFTYKNTCVGWFRQAPGKGREGVAAIDSDGNTNYVDSVKGRFTISQDNSKNTVYLQMNSLRAEDTAMYYCAAGAYCGRLLLWIGNYAYWGQGTLVTVSSTTTPAPRPPTPAPTIASQPLSLRPEACRPAAGGAVHTRGLDFACDIYIWAPLAGTCGVLLLSLVITLYCKRGRKKLLYIFKQPFMRPVQTTQEEDGCSCRFPEEEEGGCELRVKFSRSADAPAYKQGQNQLYNELNLGRREEYDVLDKRRGRDPEMGGKPRRKNPQEGLYNELQKDKMAEAYSEIGMKGERRRGKGHDGLYQGLSTATKDTYDALHMQALPPR
modifications: expressed in CAR T cells; CAS71529VH6-AS70950VH6-BBz
B4: CAS79236VH6-BBz: humanized VHH anti-GPC2 CAR (4-1BB, CD3ζ), SEQ ID NO: 233; tested as CAR T cells (protein)
chain: MALPVTALLLPLALLLHAARPEVQLVESGGGLVQPGGSLRLSCAVSGYTYSSYCMAWFRQAPGKGLEGVASIDAGGRTTYVDSVKGRFTISKDNAKNSLYLQMNSLRAEDTAMYYCAVDVRTRCGGTWDGEAVYFPYWGQGTLVTVSSTTTPAPRPPTPAPTIASQPLSLRPEACRPAAGGAVHTRGLDFACDIYIWAPLAGTCGVLLLSLVITLYCKRGRKKLLYIFKQPFMRPVQTTQEEDGCSCRFPEEEEGGCELRVKFSRSADAPAYKQGQNQLYNELNLGRREEYDVLDKRRGRDPEMGGKPRRKNPQEGLYNELQKDKMAEAYSEIGMKGERRRGKGHDGLYQGLSTATKDTYDALHMQALPPR
modifications: expressed in CAR T cells; CAS79236VH6-BBz
B5: CAS78117VH4-BBz: humanized VHH anti-GPC2 CAR (4-1BB, CD3ζ), SEQ ID NO: 227; tested as CAR T cells (protein)
chain: MALPVTALLLPLALLLHAARPEVQLVESGGGLVQPGGSLRLSCIVSRYTYATYSMAWFRQAPGKGLEGVSGLDSVGATGYAESVKGRFTISRDNSKNTLYLQMNSLRAEDTAVYYCVVDPASAKVTYGSWSTPSYAYWGQGTLVTVSSTTTPAPRPPTPAPTIASQPLSLRPEACRPAAGGAVHTRGLDFACDIYIWAPLAGTCGVLLLSLVITLYCKRGRKKLLYIFKQPFMRPVQTTQEEDGCSCRFPEEEEGGCELRVKFSRSADAPAYKQGQNQLYNELNLGRREEYDVLDKRRGRDPEMGGKPRRKNPQEGLYNELQKDKMAEAYSEIGMKGERRRGKGHDGLYQGLSTATKDTYDALHMQALPPR
modifications: expressed in CAR T cells; CAS78117VH4-BBz

Key:
[1] = system: IMR-32; assay: IFNγ release in co-culture with IMR-32; assay type: cell-based, human; conditions: Example 7, co-culture with IMR-32, FIG. 8D-8F
Text: (§1) In addition to the cytotoxicity data above, supernatants from the in vitro co-culture assays were also collected to assess CAR T cells-induced cytokine release, e.g., release of interferon gamma (i.e., IFNγ), as another indicator of cytotoxicity, was quantified using a HTRF human IFNγ AlphaLISA kit (Perkin Elmer, #62HIFNGPEH) per manufacturer's instruction. […] No significant cytokine release were detected against GPC2-negative cell line A-431.
(§2) Supernatants from the in vitro co-culture assays were collected to assess CAR T cells-induced cytokine release, e.g., interferon gamma (i.e., IFNγ) release as described in Example 6. […] IFNγ was not induced in GPC2-negative A-431 cells. […] Cytokine release data was consistent with the in vitro cytotoxicity data.

[2] = system: human neuroblastoma cell line IMR-32; assay: In vitro cytotoxicity assay (LDH), IMR-32; assay type: cell-based; conditions: co-cultured with IMR-32, FIG. 8C
Experimental: (§3) The pre-activated T cells were transduced with lentivirus stock in the presence of […] polybrene and 300 IU/mL IL-2. T cells and lentivirus were centrifuged at 1000 g, 32° C. for 1 h and placed in humidified cell culture incubator for transgene expression under suitable conditions. On day 5 or day 7 or day 10 post-transduction, transduced T cells were harvested and co-incubated with tumor cells at an effector (CAR T) to target cell ratio of 10:1 or 5:1 or 2:1 or 1:1 or 0.2:1 for 20 hours. Target cells were human neuroblastoma cell line SH-SY5Y (ATCC, #CRL-2266), human neuroblastoma cell line IMR-32 cells (ATCC, #CCL-127), or human epidermoid carcinoma cell line A-431 (ATCC, #CRL-1555). To assay the cytotoxicity of CAR T cells on tumor cells, the Cytotoxicity Detection Kit (LDH) (Roche, #11644793001) assay reagents were prepared according to manufacturer's protocol. Reaction mix was added to the cell-free supernatant of each sample to detect the LDH released from cells. Optical densities at OD492 nm and OD650 nm were measured by PHERStar Microplate Reader. Baseline LDH released from the target cell in the absence of effector cells and effector cell in the absence of target cells were subtracted from the total LDH amount. The target maximum release was obtained by adding Triton-X100 at a final concentration of 1% to target cells in the absence of effector cells at the time when the cytotoxicity assays initiated. […] The specific cytotoxicity was calculated by the formula: % Target cell lysis=100*[(OD CAR T cell+Target cell)−(OD CAR T cell)−(OD Target cell)+(OD Buffer background)]/(OD Target Maximum release−OD Target Minimum release).
(§4) On day 5 or day 8 or day 10 post-transduction, transduced T cells were harvested and co-incubated with tumor cells at an effector (CAR T) to target cell ratio of 10:1 or 1:1 or 0.2:1 for 20 hours. To assay the cytotoxicity of CAR T cells on tumor cells, the Cytotoxicity Detection Kit (LDH) (Roche, #11644793001) was added to the culture supernatant and the specific cytotoxicity for each CAR T cell construct was measured as described in Example 6.

[3] = system: human neuroblastoma cell line SH-SY5Y; assay: In vitro cytotoxicity assay (LDH), SH-SY5Y; assay type: cell-based; conditions: SH-SY5Y, effector to target ratio 10:1, 20 hours, FIG. 8A
Experimental: The pre-activated T cells were transduced with lentivirus stock in the presence of […] polybrene and 300 IU/mL IL-2. T cells and lentivirus were centrifuged at 1000 g, 32° C. for 1 h and placed in humidified cell culture incubator for transgene expression under suitable conditions. On day 5 or day 7 or day 10 post-transduction, transduced T cells were harvested and co-incubated with tumor cells at an effector (CAR T) to target cell ratio of 10:1 or 5:1 or 2:1 or 1:1 or 0.2:1 for 20 hours. Target cells were human neuroblastoma cell line SH-SY5Y (ATCC, #CRL-2266), human neuroblastoma cell line IMR-32 cells (ATCC, #CCL-127), or human epidermoid carcinoma cell line A-431 (ATCC, #CRL-1555). To assay the cytotoxicity of CAR T cells on tumor cells, the Cytotoxicity Detection Kit (LDH) (Roche, #11644793001) assay reagents were prepared according to manufacturer's protocol. Reaction mix was added to the cell-free supernatant of each sample to detect the LDH released from cells. Optical densities at OD492 nm and OD650 nm were measured by PHERStar Microplate Reader. Baseline LDH released from the target cell in the absence of effector cells and effector cell in the absence of target cells were subtracted from the total LDH amount. The target maximum release was obtained by adding Triton-X100 at a final concentration of 1% to target cells in the absence of effector cells at the time when the cytotoxicity assays initiated. Supernatant from target cells in the absence of effector cells was used for target minimum release. The specific cytotoxicity was calculated by the formula: % Target cell lysis=100*[(OD CAR T cell+Target cell)−(OD CAR T cell)−(OD Target cell)+(OD Buffer background)]/(OD Target Maximum release−OD Target Minimum release).
as §4

[4] = system: SH-SY5Y; assay: IFNγ release in co-culture with SH-SY5Y; assay type: cell-based, human; conditions: Example 7, co-culture with SH-SY5Y, FIG. 8D-8F
Text: as §1, §2

[5] = system: GPC2 negative human epidermoid carcinoma cell line A-431; assay: In vitro cytotoxicity assay (LDH), A-431; assay type: cell-based; conditions: FIG. 7G
Experimental: as §3, §4

[6] = system: neuroblastoma SH-SY5Y xenograft; assay type: in vivo, NCG mice
Experimental: A single dose of untransduced T cells (10×10^6) or CAR T cells (5×10^6) was administered intravenously to tumor engrafted mice 9 days after tumor inoculation (FIG. 9A). […] At the end of obversion, 100% of monovalent CAR T cells (CAS70950VH6-BBz, CAS72669VH6-BBz) and 80% of multi-valent CAR T cells (CAS70950VH6-AS71529VH6-BBz) treated mice were alive (FIG. 9A). At day 42 post treatment, 2/5 mice (40%) treated with CAS72669VH6-BBz expressing CAR T cells were tumor-free and 3/5 mice (60%) treated with CAS70950VH6-AS71529VH6-BBz expressing CAR T cells were tumor-free without recurrence. […] The data highlighted the superiority of VHH-based CAR T cells in tumor regression and protection of mice from disease progression.
Moreover, the expansion and persistence of CAR T cells in vivo are also considered as critical predictors of durable clinical tumor regression in patients with cancer. […] Average 5.00±6.42% of CAR T cells were found in the peripheral blood of NCG mice treated with 5×10^6 CAS70950VH6-AS71529VH6-BBz CAR T cells, whereas less than 1% CAR T cells were detected in CAS70950VH6-BBz, CAS72669VH6-BBz and CAS71529VH6-BBz expressing CAR T groups. Expansion of CAR T cells in the CAS70950VH6-AS71529VH6-BBz group was inversely correlated with tumor size over time.

[7] = 5×10^6 CAR T cells i.v., FIG. 9A

Molecule | IFNγ release [1] | cytolytic activity compared with monovalent CAR T cells [2] | specific percentage lysis [3] [%] | IFNγ release [4] | cytotoxicity against GPC2 negative A-431 [5] | also measured
B1 | high levels of IFNγ | equivalent or better cytolytic activity | 83.00±4.58 | high levels of IFNγ |  | 
B2 |  |  |  |  | no cytotoxicity | treated mice alive at the end of observation [6, 7]: 100%; tumor regression compared with CAS71529VH6-BBz [6, 7]: more pronounced; tumor-free mice (number of mice) ([6]; day 42 post treatment): 2/5; tumor-free mice (percent) ([6]; day 42 post treatment): 40%; tumor burden compared with untransduced T cell-treated group ([6]; fourteen days after treatment, 5×10^6 CAR T cells i.v., FIG. 9A): reduced tumor burden; percentage of CAR T cells in peripheral blood ([6]; mouse, in vivo): less than 1%
B3 | high levels of IFNγ | equivalent or better cytolytic activity | 70.33±4.93 | high levels of IFNγ |  | 
B4 |  |  |  |  | no cytotoxicity | 
B5 |  |  |  |  | no cytotoxicity | 
